Substitutions are numbered along the chain they refer to.
T1: Human TIGIT (SPR analyte, Example 7) (human, UniProt Q495A1 22-141, limits assumed)
T1 sequence (looked up): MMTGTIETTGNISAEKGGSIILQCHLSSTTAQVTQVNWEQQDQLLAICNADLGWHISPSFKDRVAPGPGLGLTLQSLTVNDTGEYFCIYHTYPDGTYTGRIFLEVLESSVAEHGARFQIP

T2: human TIGIT on CHOK1-huTIGIT-2A3 cells (human, UniProt Q495A1 22-244)
T2 construct: whole, on cells; also called cells expressing the human TIGIT
T2 sequence (looked up): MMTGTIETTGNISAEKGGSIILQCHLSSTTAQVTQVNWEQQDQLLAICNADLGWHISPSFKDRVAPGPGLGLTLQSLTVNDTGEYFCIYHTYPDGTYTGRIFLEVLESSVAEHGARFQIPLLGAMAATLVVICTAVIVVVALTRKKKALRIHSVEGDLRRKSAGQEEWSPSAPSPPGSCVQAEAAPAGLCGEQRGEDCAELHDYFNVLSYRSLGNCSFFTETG

B1: 900686 (bispecific antibody, human IgG1, kappa)
heavy: not shown
light: DIQMTQSPSSLSASVGDRVTITCRASQHVSTAVNWYQQKPGKAPKLLIYSASYLYSGVPSRFSGSRSGTDFTLTISSLQPEDFATYYCQQHYITPYTFGQGTKLEIKRTVAAPSVFIFPPSDEQLKSGTASVVCLLNNFYPREAKVQWKVDNALQSGNSQESVTEQDSKDSTYSLSSTLTLSKADYEKHKVYACEVTHQGLSSPVTKSFNRGEC
notes: also called TIGIT-IgG-PD-L1-scFv
B2: 900687 (bispecific antibody, human IgG1, kappa)
heavy: not shown
light: B1 light
notes: as for B1
B3: 900681 (bispecific antibody, human IgG1, kappa)
heavy: not shown
light: B1 light
notes: as for B1
B4: 900683 (bispecific antibody, human IgG1, kappa)
heavy: not shown
light: B1 light
notes: as for B1
B5: 900684 (bispecific antibody, human IgG1, kappa)
heavy: not shown
light: B1 light
notes: as for B1
B6: 900685 (bispecific antibody, human IgG1, kappa)
heavy: not shown
light: B1 light
notes: as for B1
B7: HB0031 (antibody, human IgG1, kappa, V domains shown)
VH: QVQLQESGPGLVKPSETLSLTCTVSGYSITSDYAWIWIRQPPGKGLEWIGYITSSGSTYYNPSLKSRVTFSVDTSKNQFSLKLSSVTAADTATYYCARLDFGNYGGAMDYWGQGTLVTVSS
VL: DIQMTQSPSSLSASVGDRVTITCKASQHVSTALAWYQQKPGKAPKLLIYSASYLQSGVPSRFSGSRSGTDFTLTISSLQPEDFATYYCQQHYITPYTFGQGTKLEIKR
notes: Humanized anti-TIGIT IgG1; also called 900464
B8: HB0032 (antibody, human IgG1, kappa, V domains shown)
VH: B7 VH with G45K
VL: B7 VL with L33V, A34N, L54R, R66G
notes: Humanized anti-TIGIT IgG1; also called 900466
B9: HB0033 (antibody, human IgG1, kappa, V domains shown)
VH: B7 VH with K44N, G45K
VL: B7 VL
notes: Humanized anti-TIGIT IgG1; also called 900476
B10: 900428 (antibody, human IgG1, kappa, L234A L235A, V domains shown)
VH: DVQLQESGPGLVKPSQSLSLTCTVTGYSITSDYAWNWIRQFPGNRLEWMGYISYSGAPRYNPSLKSRISITRDTSKNQFFLQLSFVTTEDTATYYCASLGTDYYAMDYWGQGTSVIVSS
VL: DIVMTQSHKFMFTSVGDRVSITCKASQHVSNAVAWYQQKPGQSPKLLIHSASYRYTGVPDRFTGRGSGTDFTFTINSVQAEDLAVYYCQQYYSLPWTFGGGTKLEIKR
notes: also called anti-TIGIT chimeric antibody 900428
B11: 900423 (antibody, human IgG1, kappa, L234A L235A, V domains shown)
VH: B10 VH
VL: B10 VL with T63I, N76S
notes: also called anti-TIGIT chimeric antibody 900423
B12: 900424 (antibody, human IgG1, kappa, L234A L235A, V domains shown)
VH: DVQLQESGPGLVKPSQSLSLTCTVTGYSITSDYAWIWIRQFPGNKVEWMGYITSSGSTSYNPSLKSRISFTRDTSKNQFFLQLTSVTTEDTATYYCARLDFGNYGGAMDYWGQGTSVTVSS
VL: DIVMTQSHKFMSTSIGDRVSITCKASQHVSTAVAWYQQKPGQSPKLLIYSASYRYTGVPDRFTGSRSGTDFTFTISSVQAEDLAVYYCQQHYITPYTFGGGTKLEIKR
notes: Chimeric form of B3/29F6; also called ADCC KO type human-mouse chimeric antibody (number 900424)
B13: 900691 (bispecific antibody, human IgG1, kappa)
heavy: not shown
light: DVVMTQTPLSLSVTPGQPASISCKSSQSLANSYGNTYLSWYLHKPGQSPQLLIYGISNRFSGVPDRFSGSGSGTDFTLKISRVEAEDVGVYYCLQGTHQPPTFGQGTKLEIKRTVAAPSVFIFPPSDEQLKSGTASVVCLLNNFYPREAKVQWKVDNALQSGNSQESVTEQDSKDSTYSLSSTLTLSKADYEKHKVYACEVTHQGLSSPVTKSFNRGEC
notes: also called PD-L1-IgG-TIGIT-scFv
B14: 900692 (bispecific antibody, human IgG1, kappa)
heavy: not shown
light: B13 light
notes: as for B13
B15: 900693 (bispecific antibody, human IgG1, kappa)
heavy: not shown
light: B13 light
notes: as for B13

The binders below were run against T1, Human TIGIT (SPR analyte, Example 7) (assay: SPR (Biacore 8K), antibody captured by anti-human chip, antigen analyte, 1:1 model).
Protocol: (§1) The Anti-Human Capture-CMS chip (GE, #BR-1005-30) was prepared according to the method for conjugating the Human Antibody Capture Kit (GE, #BR-1008-39) to the Amino Conjugation Kit (GE, BR-1000-50).
B1 was tested, and the Kd was 0.0476 nM, the koff was 0.0002 s⁻¹ and the kon was 4.19e+06 M⁻¹ s⁻¹.
In the case of B2, the Kd is reported as 0.0515 nM, the koff is reported as 0.000204 s⁻¹ and the kon is reported as 3.96e+06 M⁻¹ s⁻¹.
B3 gave a Kd of 0.0693 nM, a koff of 0.000245 s⁻¹ and a kon of 3.53e+06 M⁻¹ s⁻¹.
Work on B4 yielded a Kd of 0.0478 nM, a koff of 0.000196 s⁻¹ and a kon of 4.1e+06 M⁻¹ s⁻¹.
For B5, the Kd was 0.0502 nM, the koff was 0.000184 s⁻¹ and the kon was 3.67e+06 M⁻¹ s⁻¹.
Binder B6 has a Kd of 0.0428 nM, a koff of 0.00021 s⁻¹ and a kon of 4.89e+06 M⁻¹ s⁻¹.

The binders below were run against T3, Human PD-L1 (SPR analyte, Example 7) (human, UniProt Q9NZQ7 19-238, limits assumed) in the same assay as above.
T3 sequence (Q9NZQ7 19-238 limits assumed): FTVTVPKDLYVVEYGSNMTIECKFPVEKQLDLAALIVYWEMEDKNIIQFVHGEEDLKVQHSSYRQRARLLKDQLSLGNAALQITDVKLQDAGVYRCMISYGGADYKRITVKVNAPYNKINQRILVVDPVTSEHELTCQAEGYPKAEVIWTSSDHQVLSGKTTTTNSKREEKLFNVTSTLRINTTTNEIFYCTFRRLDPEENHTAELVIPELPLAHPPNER
Protocol: as §1
In the case of B1, the Kd is reported as 0.893 nM, the koff is reported as 0.000419 s⁻¹ and the kon is reported as 469000 M⁻¹ s⁻¹.
B2 gave a Kd of 1.37 nM, a koff of 0.00038 s⁻¹ and a kon of 278000 M⁻¹ s⁻¹.
B3 was tested, and the Kd was 1.47 nM, the koff was 0.000427 s⁻¹ and the kon was 290000 M⁻¹ s⁻¹.
B4 showed a Kd of 1.05 nM, a koff of 0.000492 s⁻¹ and a kon of 469000 M⁻¹ s⁻¹.
In the case of B5, the Kd is reported as 1.29 nM, the koff is reported as 0.000376 s⁻¹ and the kon is reported as 291000 M⁻¹ s⁻¹.
B6 was tested, and the Kd was 2.76 nM, the koff was 0.000527 s⁻¹ and the kon was 191000 M⁻¹ s⁻¹.

What follows are binders tested against T2, human TIGIT on CHOK1-huTIGIT-2A3 cells (assay: flow cytometry on CHOK1-huTIGIT-2A3 cells).
Protocol: All chimeric antibodies and humanized antibodies were diluted to 20 μg/ml with 1% BSA in PBS solution (1% BSA/PBS), were added to a 96-well U-shaped plate at 20 μL per well; and a negative control (with 1% BSA/PBS added only) was set up at the same time. The suspension of cells (CHOK1-huTIGIT-2A3, Huabo Biopharm) expressing human TIGIT during the logarithmic growth phase were centrifuged (1000 rpm×5 min) to discard the culture medium; and the cells were resuspended with 1% BSA/PBS until the density of viable cells was 1×10⁶/mL, and were added, at 20 μL (2×10⁴ cells) per well, to the 96-well U-shaped plate with the anti-TIGIT antibody to react for 30 min at room temperature. After reaction, the 96-well U-shaped plate was resuspended with 1% BSA/PBS, centrifuged (300 g×3 min) to discard the supernatant, and washed once in such a way; and PE-goat anti-human-Fc (Jackson ImmunoResearch, #109-115-098) diluted at 1:200 was added to react for 15 min in the dark at room temperature. After reaction, the 96-well U-shaped plate was resuspended with 1% BSA/PBS, centrifuged (300 g×3 min) to discard the supernatant, washed three times in such a way, and finally resuspended with 100 μL of 1% BSA/PBS for each wall; and the fluorescence intensity of a PE channel was detected with a flow cytometer (BD, #CantoII).
Binder B7 has an EC50 of 0.0581 µg/mL.
Work on B8 yielded an EC50 of 0.0785 µg/mL.
B9 showed an EC50 of 0.0514 µg/mL.
B10 gave an EC50 of 0.075 µg/mL.
Work on B11 yielded an EC50 of 0.06 µg/mL.
Work on B12 yielded an EC50 of 0.053 µg/mL.

The binders below were run against TIGIT on Jurkat-TIGIT-22G8 cells (assay: cell-based or functional assay).
With B1 the “EC50 (nM), IL2 secretion of Jurkat-TIGIT-22G8 cells with PHA and CD155” value (from here on “EC50 (nM), IL2 secretion”) was 12.9 nM.
In the case of B2, the “EC50 (nM), IL2 secretion” value is reported as 11 nM.
In the case of B3, the “EC50 (nM), IL2 secretion” value is reported as 8.96 nM.
In the case of B4, the “EC50 (nM), IL2 secretion” value is reported as 8.64 nM.
B5 was tested, and the “EC50 (nM), IL2 secretion” value was 11.1 nM.
In the case of B6, the “EC50 (nM), IL2 secretion” value is reported as 12.1 nM.

These binders were tested against PD-L1 on CHO-K1-0S8-PD-L1-8D6 cells (assay: cell-based or functional assay).
Sequence of PD-L1 on CHO-K1-0S8-PD-L1-8D6 cells (Q9NZQ7 whole entry): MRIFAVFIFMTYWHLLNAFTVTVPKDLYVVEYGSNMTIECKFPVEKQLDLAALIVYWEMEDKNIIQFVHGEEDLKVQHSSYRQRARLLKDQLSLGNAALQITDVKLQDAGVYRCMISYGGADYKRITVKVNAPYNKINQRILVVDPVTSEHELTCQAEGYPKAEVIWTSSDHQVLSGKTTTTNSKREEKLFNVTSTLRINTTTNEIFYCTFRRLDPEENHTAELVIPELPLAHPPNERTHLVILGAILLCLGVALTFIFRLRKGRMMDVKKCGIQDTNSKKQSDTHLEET
B13 was tested, and the “EC50 (nM), luciferase reporter, Jurkat-NFAT-PD-1-5B8 cells with CHO-K1-0S8-PD-L1-8D6 cells” value (“EC50 (nM), luciferase reporter” below) was 1.84 nM.
In the case of B14, the “EC50 (nM), luciferase reporter” value is reported as 2.09 nM.
B15 was tested, and the “EC50 (nM), luciferase reporter” value was 1.98 nM.

Each binder was assayed against T2, human TIGIT on CHOK1-huTIGIT-2A3 cells (assay: flow cytometry competition with huCD155-moFc on CHOK1-huTIGIT-2A3 cells).
Protocol: After reaction, the 96-well U-shaped plate was resuspended with 1% BSA/PBS, centrifuged (300 g×3 min) to discard the supernatant, and washed once in such way; and Alexa488-goat anti-mouse-Fc (Jackson ImmunoResearch, #115-545-071) diluted at 1:300 was added to react for 15 min in the dark at room temperature. After reaction, the 96-well U-shaped plate was resuspended with 1% BSA/PBS, centrifuged (300 g×3 min) to discard the supernatant, washed three times in such a way, and finally resuspended with 100 μL of 1% BSA/PBS for each wall; and the fluorescence intensity of an FITC channel was detected with a flow cytometer (BD, #CantoII).
Binder B7 has an IC50 of 0.0665 µg/mL.
B8 was tested, and the IC50 was 0.0919 µg/mL.
B9 was tested, and the IC50 was 0.056 µg/mL.
Work on B10 yielded an IC50 of 0.069 µg/mL.
B11 showed an IC50 of 0.065 µg/mL.
B12 was tested, and the IC50 was 0.062 µg/mL.

Target: T1, Human TIGIT (SPR analyte, Example 7)
Assay: SPR (Biacore 8K), antibody captured by anti-human chip, antigen analyte, 1:1 model
Remark: another data set of the same source
Protocol: as §1
B13 gave a Kd of 0.0925 nM, a koff of 9.13e-05 s⁻¹ and a kon of 987000 M⁻¹ s⁻¹.
Work on B14 yielded a Kd of 0.0751 nM, a koff of 9.11e-05 s⁻¹ and a kon of 1.21e+06 M⁻¹ s⁻¹.
Binder B15 has a Kd of 0.0863 nM, a koff of 8.03e-05 s⁻¹ and a kon of 930000 M⁻¹ s⁻¹.

Target: T3, Human PD-L1 (SPR analyte, Example 7)
Assay: as above
Remark: another data set of the same source
Protocol: as §1
B13 showed a Kd of 2.24 nM, a koff of 0.000481 s⁻¹ and a kon of 214000 M⁻¹ s⁻¹.
B14 showed a Kd of 2.79 nM, a koff of 0.00057 s⁻¹ and a kon of 204000 M⁻¹ s⁻¹.
For B15, the Kd was 2.27 nM, the koff was 0.000498 s⁻¹ and the kon was 219000 M⁻¹ s⁻¹.

Source: patent US20240010730A1 (SHANGHAI HUAOTA BIOPHARMACEUTICAL, published 2024)
